The Human Domainome abundance scans (Beltran et al. 2025)

B1: Protein S100-G, residues 1 to 79; numbered along this chain, P02633 (parent)
chain: MSAKKSPEELKGIFEKYAAKEGDPNQLSKEELKLLLQTEFPSLLKGPSTLDELFEELDKNGDGEVSFEEFQVLVKKISQ

Variants of: B1
Test: abundance fitness (aPCA) (normalised: wild type 0, dead -1); higher = more abundant; growth selection in yeast, the domain comes from the species named
Details: Bos taurus

Abundance fitness of substitutions, site by site:
L57: M 0.054 | A 0.079 | P -0.012 | H -0.031 | R -0.015 | F -0.014 | S 0.013 | N -0.042 | D 0.081 | K -0.071 | G -0.117 | W 0.032 | C 0.024 | I 0.156 | Y 0.03 | E -0.044 | Q 0.021
K59: F 0.098 | Q -0.009 | L 0.052 | Y -0.079 | I -0.105 | R -0.003 | T 0.007 | C 0.021 | V 0.087 | N 0.009 | G 0.093 | D -0.022 | H 0.013 | A 0.055 | E -0.005 | S 0.009 | M 0.085 | W 0.065
G63: C -0.04 | N -0.082 | K -0.017 | D -0.005 | R -0.029 | E 0.118 | V -0.079 | A -0.009 | F -0.124 | H 0.093 | L -0.13 | S -0.06 | Y 0.002 | P -0.036 | M -0.019
E55: K -0.047 | H 0.005 | A -0.045 | R 0.001 | Q 0.031 | W 0.011 | S -0.024 | F 0.055 | G 0.02 | V -0.012 | P 0.012 | L 0.04 | I -0.035 | T 0.005 | M 0.004 | C -0.014 | Y 0.058 | D 0.033
E52: W -0.084 | H 0.04 | G 0.026 | F -0.068 | C -0.122 | R -0.046 | K 0.022 | Q -0.023 | M -0.031 | D -0.056 | P -0.037 | Y -0.108 | N -0.002 | A -0.005 | T 0.064 | V -0.024 | I -0.042 | S -0.009 | L -0.001
G46: W -0.087 | R -0.008 | P -0.041 | L 0.02 | K -0.001 | S -0.017 | F -0.005 | M 0.053 | Y 0.011 | A 0.042 | N 0.037 | C -0.023 | E -0.025 | D 0.028 | I 0 | H 0.039 | Q -0.008 | T 0.007
D51: M 0.005 | W -0.142 | E -0.07 | G -0.044 | K -0.043 | C 0.011 | Q -0.091 | R -0.07 | V -0.032 | A -0.032 | N 0.032 | P 0.032 | F -0.121 | Y -0.145 | S -0.032 | I -0.08 | L -0.072
D62: L -0.042 | S 0.043 | Y -0.193 | K 0.004 | R -0.003 | G -0.032 | T -0.044 | F -0.138 | H -0.045 | E 0.058 | A -0.009 | I -0.097 | V -0.027 | P -0.027 | W -0.168
S48: C -0.156 | R 0.038 | I 0.005 | P 0.015 | Y 0.016 | F -0.062 | E 0.042 | M -0.056 | V -0.032 | Q 0.086 | H -0.023 | G -0.042 | L -0.01 | K 0.055 | A 0 | D -0.138 | W -0.048 | T -0.029
E56: C 0.065 | R -0.02 | T 0.001 | K -0.071 | L -0.082 | W -0.076 | I -0.208 | Y -0.06 | S 0.002 | P 0.094 | Q -0.053 | A -0.042
